Test results as given in article PMC12137140, “The fast-evolving FIKK kinase family of Plasmodium falciparum can be inhibited by a single compound” (Nature Microbiology, 2025).

B1: FIKK13_4 (peptide)
chain: YPLRFLSKYHCG
modifications: D-tyrosine at the N-terminus; cyclised via a thioether bond between the N-terminus and the cysteine side chain; C-terminal amide
B2: FIKK13_4_S7AY10A (peptide)
chain: YPLRFLAVKAHCG
modifications: D-tyrosine at position 1; cyclised via a thioether bond between the N-terminus and the cysteine side chain; C-terminal amide

How the values were obtained:
[1] = molecular target: T1, Bio-His-FIKK13 (P. falciparum, biotin (site not stated)); test: SPR; Bio-His-FIKK13 immobilised (Biotin CAPture kit, about 1,400 RU), Biacore S200, single-cycle kinetics, 100 s contact time, 25 °C, 50 mM Tris pH 7.5, 250 mM NaCl, 2 mM DTT, 10 mM MgCl2, 1.5 µM ADP, 0.02% Tween, 0.1% DMSO; conditions: both partners purified
T1 construct: also called His-bio-FIKK13; biotinylated FIKK13

[2] = molecular target: T2, Bio-His-FIKK13 (Plasmodium falciparum 3D7, biotin (site not stated)); test: SPR; single-cycle kinetics, Biacore S200, Biotin CAPture kit; Bio-His-FIKK13 immobilised (about 1,400 RU), peptides as analytes; 50 mM Tris pH 7.5, 250 mM NaCl, 2 mM DTT, 10 mM MgCl2, 1.5 µM ADP, 0.02% Tween, 0.1% DMSO; 25 °C; 100 s contact time; conditions: both partners purified
T2 construct: also called His-bio-FIKK13; PfFIKK13

Row | Binder | Kd [1] [nM] | Kd [2] [nM]
1 | B1 | 17 | 
2 | B2 |  | > 10000
